Measured values: paper PMC2629542 (The Journal of biological chemistry, 2006)

Target: Dr hemagglutinin (DraE) adhesin, Dr fimbriae (E. coli)
Experiment: SPR

B1: N-domain of CEACAM6 (domain or fragment)
chain: KLTIESTPFNVAEGKEVLLLAHNLPQNRIGYSWYKGERVDGNSLIVGYVIGTQQATPGPAYSGRETIYPNASLLIQNVTQNDTGFYTLQVIKSDLVNEEATGQFHVYPEL
- Kd: 30.1 µM
